{
  "source": "paper PMC2794159",
  "target": "MBD4 (methyl-CpG binding domain protein 4) (mouse, UniProt Q9Z2D7 1-554)",
  "sequence (Q9Z2D7 whole entry, the tested form may be a part)": "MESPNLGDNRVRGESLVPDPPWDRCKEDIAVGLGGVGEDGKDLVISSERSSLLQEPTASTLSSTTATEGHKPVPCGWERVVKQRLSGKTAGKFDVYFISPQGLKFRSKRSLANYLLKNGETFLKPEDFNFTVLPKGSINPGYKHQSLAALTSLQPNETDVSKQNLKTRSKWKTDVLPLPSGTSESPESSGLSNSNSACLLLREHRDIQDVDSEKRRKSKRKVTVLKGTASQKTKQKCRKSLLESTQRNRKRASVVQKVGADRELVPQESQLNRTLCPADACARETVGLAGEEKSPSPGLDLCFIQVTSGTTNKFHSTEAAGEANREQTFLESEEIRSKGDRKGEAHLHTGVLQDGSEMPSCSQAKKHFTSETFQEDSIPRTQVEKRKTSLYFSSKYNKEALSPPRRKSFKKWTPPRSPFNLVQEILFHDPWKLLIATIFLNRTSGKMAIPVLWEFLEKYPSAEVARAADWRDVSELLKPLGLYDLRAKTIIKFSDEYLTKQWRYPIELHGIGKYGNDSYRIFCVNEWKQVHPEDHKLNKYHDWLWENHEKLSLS",
  "assay": "EMSA",
  "data": [
    {"binder": "GGTCGGGGTAGCGGCTGAATCGCTGCACGCCGTAGGTCACGCG (ssDNA, m5C at position 21 (m5CpG); 3' cgcg phosphorothioate)", "note": "[m5CpGGFP ssODN alone]", "values": [
      {"measurement": "binding result", "value": "no binding"}
    ]}
  ]
}
